Bridge positions count the residues as written; N and C are the ends. Square brackets hold non-standard residues; d marks the D form. Peptide text beside a SMILES is read from it. * marks the point of attachment. ξ: configuration not given here. NBD = O=[N+]([O-])c1ccc(*)c2nonc12; dDab = NCC[C@@H](N)C(=O)O; Dab = NCC[C@H](N)C(=O)O; AEEA = NCCOCCOCC(=O)O; ξDab = NCCC(N)C(=O)O
Key:
[1] = tested on: bacteria on human lung tissue; assay: Detection of bacteria in the presence of human lung tissue autofluorescence (FCFM, confocal, FLIM); conditions: FCFM and benchtop confocal
Text: FIG. 21: Bacteria detected in the presence of human lung tissue autofluorescence. […] B) Live confocal microscopy images (merge) showing merge images of nucleic acid counterstain (red) with no NBD-PMX labelling. Bacteria in right panel can be clearly seen, labelled with NBD-PMX and above the background fluorescence.
FIG. 24: Fluorescence Life Time Imaging easily distinguishes lung tissue from bacteria. […] Imaging performed using NBD-UBIdend and S. aureus on human lung tissue.

[2] = Rodent single dose intratracheal toxicity assessment; type: in vivo, Mice; design: Creatinine / Bilirubin / Albumin: unit not given here

## CC(C)C[C@@H]1NC(=O)[C@@H](Cc2ccccc2)NC(=O)[C@@H](CCN)NC(=O)C(NC(=O)[C@H](CCN)NC(=O)[C@@H](NC(=O)COCCOCCNc2ccc([N+](=O)[O-])c3nonc23)[C@@H](C)O)CCNC(=O)[C@@H]([C@H](C)O)NC(=O)[C@H](CCN)NC(=O)[C@H](CCN)NC1=O (some centres unmarked) [NBD-PMX] ({NBD-AEEA}-T[Dab][ξDab][dDab][dF]L[Dab][Dab][dT]; lactam 3-C)
[1]
  detection of bacteria above human lung autofluorescence: demonstrating bacterial signal
[2]; 48 hours
  ALP: 107.7 ± 17.3 u/l
  ALT: 36.0 ± 9.0 u/l
  Albumin: 23.7 ± 0.3
  BALF: 509.0 ± 270.2 Cells/ul
  Bilirubin: 1.2 ± 0.4
  Creatinine: 16.3 ± 8.8
  Cytospin (% of Neutrophils): 0%
  Cytospin (% of Red Blood Cells): 3.9%
  PenH value: 0.5 ± 0.05
[2]; 48 hours, single intratracheal 100 μg/25 g mouse
  Cytospin (% of Mononuclear cells): 96.1%
[2]; 14 days
  ALP: 126.3 ± 8.5 u/l
  ALT: 40.3 ± 4.8 u/l
  Albumin: 25.3 ± 0.7
  BALF: 542.0 ± 84.7 Cells/ul
  Bilirubin: 1.2 ± 0.4
  Creatinine: 9.7 ± 0.3
  Cytospin (% of Neutrophils): 0%
  Cytospin (% of Red Blood Cells): 2.3%
  PenH value: 0.5 ± 0.07
[2]; 14 days, single intratracheal 100 μg/25 g mouse
  Cytospin (% of Mononuclear cells): 93.0%
[2]; single instillation, 48 hours and 14 days, compared to PBS control
  organ toxicity (histology): no organ toxicity
[2]; single intratracheal 100 μg/25 g mouse, 48 hours and 14 days
  toxicity: no toxicity

Reference: patent publication US10648979B2, “Molecular probes for detecting gram-negative bacteria in vitro and in vivo” (priority 2014, dated 2020)
